assay: yeast display, Sf9 membrane polyspecificity reagent, FACS + sequencing; frameworks hold sequencing errors
Procedure, shortened: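 Sorting gates, low and high (top ~1%), were placed on anti-HA fluorescence to track expression and on streptavidin fluorescence to track reagent binding. A clone's polyreactivity label is taken from the gate it came out of. The reagent was 10% biotinylated, detergent-solubilized Sf9 membrane, applied for 1 hour at 4 °C to galactose-induced yeast display cells.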

Sequence | polyreactivity (PSR sort gate)
QVQLVESGGGLVQAGGSLRLSGAATGSIFKIMGWYRQAPGKERELVAAISSSVGNTYYADSVKGRFTISRDNAKNTVYLQMNSLKPEDTAVYYCAAQSKYYQYYSWGQRTQVTVSS | high polyreactivity
QVQLVESGGGLVQAGGSLRLSCAASGRTFWIYGMGWYRQAPGKERELVAAITRSGGSTNYADSVKGRFTISRDNAKNTVYLQMKSLKPEDTAVYYCAADTWYPGYYAYDYWGQGTQVTVSS | high polyreactivity
QVQLVESGGGLVQAGGSLRLSCAASGSIFWGIAMGWYRQAPGTERELVAAISWGGGRTYYADSVKGRFTLSRDNAKNTVYLQMNSLKPEDTAVYYCNTRYPYVVSTGYDYWGQGTQVTVSS | high polyreactivity
QVQLEESGAGLVQAGGSLRLSCAASVFTFCCTTMGRSRPAPGKESELVATISRTGGITYYADSVKGRFTISRDNAKNTVNLQMNSLKPEDTAVYYCILRYYWGQVTQVTVSS | high polyreactivity
QVQLVESGGGLVQAGGSLRLSCAASGSILNNYAMGWYRQAPGKERELVAAISSSGGTNYADSVKGRFTISRDNAKYTVYLQMNSLKPEDTAVYYCNADVLDGGYDYWGQGTQVTVSS | low polyreactivity
QVQLVESGGGLVQAGGSLRLSCAASGSTFGSYAMGWYRQAPGKERELVAAITASGGSTYYADSVKGRFTISRDNGKNTVYLQMKSLKPEDTAVYYCAADTTYIPLSIEYDYWGQGTQVTVSS | low polyreactivity
QVQLVESGGGLVQAGGSLRLSCAASGRTFYVNTMGWYRQAPGKERELVAAITSRGGRTHYADSVKGRFTISRDNAKNNVYLQMNSLKPEDTAVYYCAAKITAYWRYISDYGYWGQGTQVTVSS | high polyreactivity
QVQLVESGGGLVQAGGSLRLSCAASGSTFRPYAKGWYRQAPGKERELVAAISNGGNTNYADSVKGRFSISRDNAKNTVYLQMNSLIPEDTAFYYCAKTFRGQPYLRYRYYYWGQGTQVTVSS | high polyreactivity
QVQLGESGGGLVQAGGSLRLSCAASGRIFAWNAMGWYRQAPGKERELVAAITYNGGSTYYADSVKGRFTISRDNAKNTVYLQMNSLKPEDTAVYYCNKVTRSPAQGYGYWGQGTQVTVSS | high polyreactivity
QVQLVESGGGLVQAGGSLRLSCAASGSTFTHYAMGWYRQAPGKERELVAAISWGGGTTRYADSVKGRFTISRDNAKNTVYLQMNSLKPEDTAVYYCAKRVRTGSVGNFNYWGQGTQVTVSS | high polyreactivity
QVQLVESGGGLVQAGGSLRLSSSACGSTFYKNAMGWDRQAPGKERELVAGISRRGGRTYYADSLKGRFTISRDNANNTVYLQMNSLKPVDTADYYCNTGHEEDEYDYWGQGTQVTVSS | low polyreactivity
QVQLVESAARLVQAGGSLRLSCAPSGNIFKGYAMGCYRQAPGKHRELVAAITSGDSTNYADSVKGRFTISRDNAKNTVYLQMNSLKPEDTGVYYCNARYSWWRSRDGSSHRPDGYWGQGTQVTVSS | high polyreactivity
QVQLVESGGGLVQAGGSLRLSCAASGRIFNTYAMGWYRQAPGKERELVAVISSRGGSTYYADSVKGRFTISRDNAKNTVYLQMNSLKPEDTAVYYCAARGRGQPFVRYDYWGQGTQVTVSS | high polyreactivity
QVQHVESGGGLVQAGGSLRLSCAASGSIFGRYVMGRYRQAPGKESEFVAAISRSGGRTYYADSVKGRFTISRDNAKNTVYLQMNSLKPEDTAVYYCNAVGAAGPYDYWGQGTQVTVSS | high polyreactivity
QVHLVESGGGLVQAGGSLRITCAASGRIFWSYAMGWYRQAPGKEMELVAAITWSGGSTYYADSVKGRFTISRDNAKNTVYLQMIRLKPEDTAVYYCNAATGQPVGLDYWGQGTQVTVSS | low polyreactivity
QDQLVESGGGLVQAGGSLRLSCAPSGSIFYRNAMGWYRQAPGKERELVAAIRYSGDNTYYADSVKGRFTISRDNSKNTVYLQMNSLKPEDTAVYYCAADFPDYEYWGQGTQVTVSS | high polyreactivity
QVQLVESGGGLVQAGGSLRLSCAASGSTFYKNAMGWYRQAPGKERELVAGISRRGGRTYYADSVKGRFTISRDNAKNTVYLQMNSLKPEDTAVYYCNTGHEEDEYDYWGQGTQVTVSS | low polyreactivity
QVQLVDTGGGLVQAGGSLRLSCAASGLTIYGNAMGWSRQAPGKERELVAAISSSGGTTYYADSVKGRFTISRDNSKNTVYLQMNSLKPEDTAVYYCAARPSGGYESTRTRDYWGQGTQVTLSS | low polyreactivity
QVQLVESGGGLVQAGGSLRLSCAASGFIFRYYAMGWYRQAPGKERELVAAISWSGGSTYYADSVKGRFTISRDNAKNTVYLQMNSLKPEDTAVYYCNAVTTYGEYDYWGHGTQVTVSS | high polyreactivity
QVQLVESGGGLVQAGGSLRLSCAASRSTFVLYDMGWYRPAPGKERELVAAISRSGDSTYYADSVKGRYTISRDNAKNTVYLQMNSLKPEDTAVYYCAAKRRISTGMDYWGQGTQGTVSS | high polyreactivity
QVQLVESGGGLVQAGGSLRLSCAASGRTFIKYAMGWYRPAPGKERELVAAITHRGTNTYYADSVKGRFTISRDNAKYTVYLQMNSLKPEDTAVYYCAAAAPSYPSYDYWGQGTQVTVSS | low polyreactivity

From the nanobody polyreactivity screen of Harvey et al. (2022)
